B1: anti-NOV1401 Fab IDT1 (parental, first generation) (Fab, V domains shown)
VH: QVQLLESGGGLVQPGGSLRLSCAASGFTFSDYAMSWVRQAPGKGLEWVSVIDYSSSNTYYADSVKGRFTISRDNSKNTLYLQMNSLRAEDTAVYYCAREGYSYRSIRFDYWGQGTLVTVSS
VL: DIQMTQSPSSLSASVGDRVTITCRASQSISSNLNWYQQKPGKAPKLLIYAASNLQSGVPSRFSGSGSGTDFTLTISSLQPEDFATYYCLQFDHTPFTFGQGTKVEIKR
notes: also called parental Fab; parental antibody IDT1
B2: anti-NOV1401 Fab IDT1D (HC1 + LC2) (Fab, V domains shown)
VH: QVQLLESGGGLVQPGGSLRLSCAASGFTFSDYAMSWVRQAPGKGLEWVSTIAYVGAPTHYADSVKGRFTISRDNSKNTLYLQMNSLRAEDTAVYYCAREGYSYRSIRFDYWGQGTLVTVSS
VL: DIQMTQSPSSLSASVGDRVTITCRASQSISSNLNWYQQKPGKAPKLLIYAASNLQSGVPSRFSGSGSGTDFTLTISSLQPEDFATYYCLQYYHLPYTFGQGTKVEIKR
notes: Cross-clone: heavy chain of IDT1C with light chain of IDT1A; expressed in 293 HEK cells; also called 1DT1D
B3: anti-NOV1401 Fab IDT1A, E. coli format (Fab, V domains shown)
VH: EVQLLESGGGLVQPGGSLRLSCAASGFTFSDYAMSWVRQAPGKGLEWVSVIDYSSSNTYYADSVKGRFTISRDNSKNTLYLQMNSLRAEDTAVYYCAREGYSYRSIRFDYWGQGTLVTVSS
VL: DIQMTQSPSSLSASVGDRVTITCRASQSISSNLNWYQQKPGKAPKLLIYAASNLQSGVPSRFSGSGSGTDFTLTISSLQPEDFATYYCLQYYHLPYTFGQGTKVEIKR
B4: anti-NOV1401 Fab IDT1B, E. coli format (Fab, V domains shown)
VH: EVQLLESGGGLVQPGGSLRLSCAASGFTFSDYAMSWVRQAPGKGLEWVSTISYLGQEKHYADSVKGRFTISRDNSKNTLYLQMNSLRAEDTAVYYCAREGYSYRSIRFDYWGQGTLVTVSS
VL: DIQMTQSPSSLSASVGDRVTITCRASQSISSNLNWYQQKPGKAPKLLIYAASNLQSGVPSRFSGSGSGTDFTLTISSLQPEDFATYYCLQFDHTPFTFGQGTKVEIKR
B5: anti-NOV1401 Fab IDT1E (HC2 + LC2) (Fab, V domains shown)
VH: QVQLLESGGGLVQPGGSLRLSCAASGFTFSDYAMSWVRQAPGKGLEWVSTISYLGQEKHYADSVKGRFTISRDNSKNTLYLQMNSLRAEDTAVYYCAREGYSYRSIRFDYWGQGTLVTVSS
VL: DIQMTQSPSSLSASVGDRVTITCRASQSISSNLNWYQQKPGKAPKLLIYAASNLQSGVPSRFSGSGSGTDFTLTISSLQPEDFATYYCLQYYHLPYTFGQGTKVEIKR
notes: Cross-clone: heavy chain of IDT1B with light chain of IDT1A; expressed in 293 HEK cells
B6: anti-NOV1401 Fab IDT1C, mammalian format (HC1 + LC1) (Fab, V domains shown)
VH: QVQLLESGGGLVQPGGSLRLSCAASGFTFSDYAMSWVRQAPGKGLEWVSTIAYVGAPTHYADSVKGRFTISRDNSKNTLYLQMNSLRAEDTAVYYCAREGYSYRSIRFDYWGQGTLVTVSS
VL: DIQMTQSPSSLSASVGDRVTITCRASQSISSNLNWYQQKPGKAPKLLIYAASNLQSGVPSRFSGSGSGTDFTLTISSLQPEDFATYYCLQFDHTPFTFGQGTKVEIKR
B7: anti-FXI/FXIa antibody NOV1401 (antibody, human IgG1, lambda, V domains shown)
VH: QVQLLESGGGLVQPGGSLRLSCAASGFTFSTAAMSWVRQAPGKGLEWVSGISGSGSSTYYADSVKGRFTISRDNSKNTLYLQMNSLRAEDTAVYYCARELSYLYSGYYFDYWGQGTLVTVSS
VL: QSVLTQPPSASGTPGQRVTISCSGSSSNIGSNDVSWYQQLPGTAPKLLIYKNYNRPSGVPDRFSGSKSGTSASLAISGLQSEDEADYYCSAWDQRQFDVVFGGGTKLTVLG
notes: Captured through Fc in Octet, free in solution in SET (biotinylated NOV1401 used only on the detection plate), amine-coupled in SPR; also called anti-Factor XI antibody NOV1401; target antibody

Legend:
[1] = biological target: B7; experiment: SPR (ProteOn XPR36), NOV1401 amine-coupled, Fab as analyte, 25 C, Langmuir 1:1
Method: SPR binding experiments were performed on a ProteOn XPR36 instrument (Bio-Rad Laboratories, Inc.) in PBS/T buffer (50 mM phosphate, 150 mM NaCl, pH 7.4, 0.05% v/v Tween-20) at 25° C. NOV1401 (‘Ligand’) was immobilized onto an activated ProteOn GLC sensor chip (Bio-Rad Laboratories, Inc.) using standard amine coupling procedures as described by the manufacturer. Briefly, NOV1401 was injected at a concentration of […] in 20 mM sodium acetate, pH 5.0 and at a flow rate of 30 μl/min for 10 min. Unreacted groups were blocked by injecting 1 M ethanolamine.
For kinetic studies anti-NOV1401 Fabs (‘Analytes’) were diluted in PBS/T buffer to generate a dilution series with concentrations ranging from 0.125-4 nM. Fabs were injected onto surfaces with immobilized NOV1401 at a flow rate of 100 μL/min and sensorgrams were recorded for association and dissociation times of 220 s and 1800 s, respectively. Blank surfaces were used for background corrections. There was no need to regenerate surfaces since the ProteOn protein interaction array system allows to run up to six binding experiments on an identical surface in parallel.
Data processing and analysis including kₒₙ, koff, and KD determination were performed with the ProteOn Managerrm software version 3.1.0.6. Sensorgrams were fitted by applying a Langmuir 1:1 binding model (Rmax set at global) and dissociation constants were calculated from kₒₙ and koff.

[2] = biological target: B7; experiment: solution equilibrium titration (SET), constant Fab with titrated NOV1401, RT, 1:1 fit, average
Method: (§1) 14 serial 2-fold dilutions of NOV1401 (from 0.1 pM to 1 nM) were prepared in assay buffer (DPBS (Life Technologies) containing 0.5% BSA and 0.02% Tween-20), and a constant concentration of anti-NOV1401 Fab was added (10 pM, 20 pM or 40 pM). A volume of 60 μl/well of each NOV1401-anti-NOV1401 mix was dispensed in triplicates to a 384-well polypropylene microtiter plate (polypropylene MTP: Greiner, Cat. #781280). Assay buffer served as a negative control and a sample containing only anti-NOV1401 served as a positive control (Bmax). The plate was sealed and incubated overnight (o/n, at least 20 h) at room temperature (RT) on a shaker. A 384-well streptavidin (SA) plate from Life Technologies (Cat. #15505) was coated with 30 μl/well of Biotin-NOV1401 diluted in assay buffer for 2 h at RT on a shaker, then washed three times with wash buffer (PBS containing 0.05% Tween 20). After that 30 μl/well of the equilibrated NOV1401-anti-NOV1401 mix was transferred from the polypropylene MTP (Greiner) to the coated SA plate and incubated for 30 min at RT on a shaker. After an additional wash step, 30 μl/well anti-human Kappa LC-HRP detection antibody (BETHYL, Cat. #A80-115P; 0.05 μg/ml diluted in assay buffer) was added to each well and incubated for 60 min at RT on a shaker. The SA plate was washed, and 30 μl/well LumiGLO read buffer (KPL, Cat. #54-61-01; LumiGLO Peroxidase Chemiluminescent Substrate) was added and incubated for 1 min at RT. RLU signal was measured by the SPECTRAMAXM5 (Molecular Devices, Sunnyvale, Calif. USA).
(§2) All measurements were performed as triplicates and average RLU signals were calculated. Data were baseline-adjusted by subtracting the value for the lowest concentration from all data points and plotted against the corresponding NOV1401 concentration. The KD was determined by non-linear curve fitting using a 1:1 fit model as shown in Equation (according to Haenel et al., 2005, Anal Biochem. 339(1):182-4):
(§3) KD and Bₘₐₓ were set as variables to be fitted by GraphPad Prism 7.03.

[3] = biological target: B7; experiment: solution equilibrium titration (SET), 1:1 fit, average KD printed in the panel
Method: as §1, with “A” for “14 serial 2-fold dilutions of NOV1401 (from 0.1 pM to 1 nM) were prepared in assay buffer (DPBS (Life Technologies) containing 0.5% BSA and 0.02% Tween-20), and a constant concentration of anti-NOV1401 Fab was added (10 pM, 20 pM or 40 pM). A”
as §2, §3

[4] = biological target: B7; experiment: cell-based or functional assay
[5] = biological target: B7; experiment: Octet bio-layer interferometry, NOV1401 captured on anti-human IgG Fc (AHC) sensors, Fab at 25-400 nM in solution
Method: Affinity assessments were performed via Bio-Layer Interferometry technology. Anti-Human IgG Fc Capture (AHC) biosensors (Fortebio, Ref. 18-5060) were used to capture NOV1401. […] Buffer (Fortebio, Ref. 18-5032) alone was used for background (0 nM) determination. Fab association and dissociation were each recorded by measuring the change in layer thickness (in nanometers, nm) with time for 800 s each, all under computer control.

[6] = biological target: B2; experiment: SET: NOV1401 titrated against a constant Fab concentration in solution, free Fab captured on a biotin-NOV1401 streptavidin plate and detected with anti-human kappa-HRP
Method: as §1, §3

[7] = biological target: B5; experiment: as above
Method: as §1, §3

[8] = biological target: B6; experiment: as above
Method: as §1, §3

| Binder | kon [1] [M⁻¹ s⁻¹] | Kd [2] [pM] | Kd [3] [pM] | aPTT reversal, NOV1401/anti-NOV1401 ratio (n/n) 1/3 [4] [%] | aPTT reversal, NOV1401/anti-NOV1401 ratio (n/n) 1/9 [4] [%] | aPTT reversal, NOV1401/anti-NOV1401 ratio (n/n) 1/30 [4] [%] | also measured |
| --- | --- | --- | --- | --- | --- | --- | --- |
| B1 | 550000 | 110 | – | – | – | – | Kd [1]: 440 pM; koff [1]: 0.00024 s⁻¹ |
| B2 | 440000 | – | 2.5 | 63 | 72 | 78 | – |
| B3 | – | – | – | – | – | – | binding result [5]: binds |
| B4 | – | – | – | – | – | – | binding result [5]: binds |
| B5 | 690000 | 2.5 | 7 | 72 | 84 | 83 | – |
| B6 | 250000 | 9.6 | 9.6 | 79 | 80 | 78 | – |
| B7 | – | – | – | – | – | – | IC50 (read off the curve) [6]: ~20 pM; IC50 (read off the curve) [7]: ~10 pM; IC50 (read off the curve) [8]: 10 to 20 pM |

Source: US20220025070A1 (Novartis, published 2022)
